Laboratory results: patent publication US7799901B2, “Modulators of the function of FAS receptors and other proteins” (Yeda Research and Development Co. Ltd., priority 1995, dated 2010)

T1: MORT-1 (Homo sapiens, UniProt Q13158, G32V)
T1 sequence (Q13158 with tags, fused parts or gaps G32V): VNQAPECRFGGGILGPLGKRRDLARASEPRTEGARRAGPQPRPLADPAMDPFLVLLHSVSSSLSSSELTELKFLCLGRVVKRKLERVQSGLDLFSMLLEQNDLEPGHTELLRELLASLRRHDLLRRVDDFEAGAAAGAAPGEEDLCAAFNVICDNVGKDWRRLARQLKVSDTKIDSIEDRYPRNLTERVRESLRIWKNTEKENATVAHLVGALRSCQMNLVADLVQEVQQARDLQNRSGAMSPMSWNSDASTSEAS

T2: FAS-IC (Homo sapiens, UniProt P25445)
T2 construct: the FAS-IC extends-from amino acid residues 175-319 of the intact FAS-R; expressed in transfected cells; host or cells: SFY526 yeast
T2 sequence (P25445 191-335): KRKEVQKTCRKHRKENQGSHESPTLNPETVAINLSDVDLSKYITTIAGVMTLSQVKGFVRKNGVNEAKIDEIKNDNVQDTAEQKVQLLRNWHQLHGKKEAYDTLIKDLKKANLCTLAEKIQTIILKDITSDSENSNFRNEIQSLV

B1: fragment corresponding to residues 130-245: C-terminal part of MORT-1 containing its death domain homology region, amino acids 130-245 (protein)
chain: FEAGAAAGAAPGEEDLCAAFNVICDNVGKDWRRLARQLKVSDTKIDSIEDRYPRNLTERVRESLRIWKNTEKENATVAHLVGALRSCQMNLVADLVQEVQQARDLQNRSGAMSPMS
B2: MACHα2: MACH isoform, cDNA SEQ ID NO: 17, amino acid SEQ ID NO: 18 (protein)
chain: MDFSRNLYDIGEQLDSEDLASLKFLSLDYIPQRKQEPIKDALMLFQRLQEKRMLEESNLSFLKELLFRINRLDLLITYLNTRKEEMERELQTPGRAQISAYRVMLYQISEEVSRSELRSFKFLLQEEISKCKLDDDMNLLDIFIEMEKRVILGEGKLDILKRVCAQINKSLLKIINDYEEFSKGEELCGVMTISDSPREQDSESQTLDKVYQMKSKPRGYCLIINNHNFAKAREKVPKLHSIRDRNGTHLDAGALTTTFEELHFEIKPHDDCTVEQIYEILKIYQLMDHSNMDCFICCILSHGDKGIIYGTDGQEAPIYELTSQFTGLKCPSLAGKPKVFFIQACQGDNYQKGIPVETDSEEQPYLEMDLSSPQTRYIPDEADFLLGMATVNNCVSYRNPAEGTWYIQSLCQSLRERCPRGDDILTILTEVNYEVSNKDDKKNMGKQMPQPTFTLRKKLVFPSD

Tests used:
MORT-1 = target: T1, MORT-1; assay: Two-hybrid test (FIG. 1), binding to full-length MORT-1; design: expressed in transfected cells; host or cells: SFY526 yeast
From the text: (§1) To isolate proteins interacting with the intracellular domain of the FAS-R, the yeast two-hybrid system was used (Fields and Song, 1989). […] In this system, the genes for the candidate interacting proteins are cloned into separate expression vectors. In one expression vector, the sequence of the one candidate protein is cloned in phase with the sequence of the GAL4 DNA-binding domain to generate a hybrid protein with the GAL4 DNA-binding-domain, and in the other vector, the sequence of the second candidate protein is cloned in phase with the sequence of the GAL4 activation domain to generate a hybrid protein with the GAL4-activation domain. The two hybrid vectors are then co-transformed into a yeast host strain having a lacZ or HIS3 reporter gene under the control of upstream GAL4 binding sites. Only those transformed host cells (cotransformants) in which the two hybrid proteins are expressed and are capable of interacting with each other, will be capable of expressing the reporter gene. In the case of the lacZ reporter gene, host cells expressing this gene will become blue in color when X-gal is added to the cultures.
(b) retransforming the plasmid DNA and original FAS-IC hybrid plasmid and control plasmids described in (a) into yeast host cells of strain SFY526 and determining the LACZ^+ activity (effectivity of β-gal formation, i.e., blue color formation).
In FIG. 1, there is depicted the interaction of the proteins encoded by the Gal4 DNA binding domain and activation-domain constructs (pGBT9 and pGAD-GH) within transfected SFY526 yeasts as assessed by β-galactosidase expression filter assay. The DNA-binding-domain constructs included four constructs of the human Fas-IC, four constructs of the mouse Fas-IC including two full-length constructs having […] or Ile to Ala replacement mutations at position 225 (I225N and I225A, respectively), and three MORT-1 constructs, all of which are shown schematically on the left hand side of FIG. 1. […]

[1] = test system: FAS-R mediated cell death in HeLa cells; assay: Anti-FAS-R antibody (CH-11) induced death of HeLa cells co-expressing FAS-R, neutral-red uptake; assay type: cell-based; conditions: co-expression with human FAS-R in HeLa HtTA-1; CH-11 antibody plus 10 μg/ml cycloheximide
From the text: In another set of experiments to analyze the region of the MORT-1 protein involved in the binding to the FAS-IC, the following proteins were expressed transiently in HeLa cells that contain a tetracycline-controlled transactivator (HtTA-1), using a tetracycline-controlled expression vector (pUHD10-3): Human FAS-R alone; Human FAS-R as well as the N-terminal part of MORT-1 (amino acids 1-117, the “MORT-1 head”); Human FAS-R as well as the C-terminal part of MORT-1, which contains its ‘death domain’ homology region (amino acids 130-245, the “MORT-1 DD”); FLAG-55.11 (amino acids 309-900 of protein 55.11 fused at the N-terminus to the FLAG octapeptide, the protein 55.11 being a p55-IC-specific binding protein. Twelve hours after transfection, the cells were trypsinized and re-seeded at a concentration of 30,000 cells/well. After 24 hrs further incubation, the cells were treated for 6 hrs with a monoclonal antibody against the extracellular domain of FAS-R (monoclonal antibody CH-11, Oncor, Gaithersburg, Md., USA) at various concentrations (0.001-10 μg/ml monoclonal antibody), in the presence of 10 μg/ml cycloheximide. Cell viability was then determined by the neutral-red uptake assay and the results were presented in terms of % viable cells as compared to cells that had been incubated with cycloheximide alone (in the absence of anti-FAS-R monoclonal antibody CH-11). […]

FAS-IC = target: T2, FAS-IC; assay: Two-hybrid test (FIG. 1), binding of MORT-1 fragments to FAS-IC
From the text: as §1, with “cultures. […]” for “cultures.”
In FIG. 1, there is depicted the interaction of the proteins encoded by the Gal4 DNA binding domain and activation-domain constructs (pGBT9 and pGAD-GH) within transfected SFY526 yeasts as assessed by β-galactosidase expression filter assay. […]

[2] = test system: human embryonic kidney 293-EBNA cells; assay: Cell death on overexpression of MACH isoforms in 293-EBNA cells; assay type: cell-based; conditions: β-galactosidase-expressing cells with apoptopic morphology, 20 h after transfection
Procedure: To explore the involvement of MACH in cell-death induction, the effect of overexpression of various MACH isoforms on cell viability was examined. The test was performed by transfecting MACH expression vectors together with a β-galactosidase expression vector as a transfection marker into human embryonic kidney 293-EBNA cells and breast carcinoma MCF7 cells.
In brief, 293-EBNA cells, MCF7 human breast carcinoma cells and HeLa HtTA-1 cells were grown in Dulbecco's modified Eagle's minimal essential medium supplemented with 10% fetal calf serum, nonessential amino acids, 100 U/ml penicillin and 100 μg/ml streptomycin. Cell tissue culture dishes (5×10^5 293-EBNA cells, 3×10^5 s MCF7 cells or 3×10^5 HeLa cells in 6-cm dishes) were transiently transfected, using the calcium phosphate precipitation method, with the cDNAs of the indicated proteins together with the β-galactosidase expression vector. In the experiments presented in FIGS. 14A-D and 15, each dish was transfected with 3.5 μg of the indicated MACH construct and 1.5 μg of pSV-β-gal. In the experiments presented in FIGS. 16A-D and 17-19, each dish was transfected with 2.5 μg of the indicated MACH or MORT1 construct (or, as control, empty vector) and 1.5 μg of pSV-β-gal. The cells were rinsed 6 to 10 h after transfection. The 293-EBNA and MCF7 cells were incubated for a further 18 h without additional treatment. The HeLa cells were incubated for 26 h after transfection and-then for 5 h in the presence of either anti-Fas.APO1 antibody (CH11, 0.5 μg/ml) or TNF (100 ng/ml), together with cycloheximide (10 μg/ml). The extent of cell death at the end of the incubation periods was assessed by determination of β-galactosidase expression, as described by Kumar et al, 1994.
In particular, FIGS. 14A-D show the morphology of human embryonic kidney 293-EBNA cells transiently expressing the indicated MACH isoforms. The arrows (FIG. 14B) point to apoptopic cells. Photographs were taken 26 h after transfection. […] Data are from three independent experiments with the 293-EBNA cells and two independent experiments with the MCF7 cells.

Row | Molecule | binding to full-length MORT-1 in two-hybrid test (MORT-1) | effect on FAS-induced (FAS-R mediated) cell death [1] | binding to FAS-IC / FAS-R in two-hybrid test (FAS-IC) | cell death of transfected 293-EBNA cells [2]
1 | B1 | does not bind | strongly interferes | binds | –
2 | B2 | – | – | – | massive cell death
